The labels stand for the following.
B1: IgG1-F799 (antibody)
heavy: QVQLQESGPGLVKPSETLSLTCAVSGHSISHDHAWSWVRQPPGEGLEWIGFISYSGITNYNPSLQGRVTISRDNSKNTLYLQMNSLRAEDTAVYYCARSLARTTAMDYWGEGTLVTVSSASTKGPSVFPLAPSSKSTSGGTAALGCLVKDYFPEPVTVSWNSGALTSGVHTFPAVLQSSGLYSLSSVVTVPSSSLGTQTYICNVNHKPSNTKVDKKVEPKSCDKTHTCPPCPAPELLGGPSVFLFPPKPKDTLYISRTPEVTCVVVDVSHEDPEVKFNWYVDGVEVHNAKTKPREEQYNSTYRVVSVLTVLHQDWLRGKEYKCKVSNKALPAPIEKTISKAKGQPREPQVYTLPPSRDELTKNQVSLTCLVKGFYPSDIAVEWESNGQPENNYKTTPPVLDSDGSFFLYSKLTVDKSRWQQGNVFSCSVMHEALHYHYTQKSLSLSP
light: not shown
notes: EU numbering; copies: 2 + 2
B2: IgG1-F814 (antibody)
heavy: B1 heavy with R317N, Y438I
light: not shown
notes: EU numbering; copies: 2 + 2
B3: IgG1-F807 (antibody)
heavy: B1 heavy with R317N, N391A
light: not shown
notes: EU numbering; copies: 2 + 2
B4: IgG1-F841 (antibody)
heavy: B1 heavy with P240D, T252V, R257N, R317N
light: not shown
notes: EU numbering; copies: 2 + 2
B5: IgG1-F823 (antibody)
heavy: B1 heavy with P240D, T252Y, W315F, R317N
light: not shown
notes: EU numbering; copies: 2 + 2
B6: IgG1-F800 (antibody)
heavy: B1 heavy with R317S
light: not shown
notes: EU numbering; copies: 2 + 2
B7: IgG1-F811 (antibody)
heavy: B1 heavy with R317N, E382S
light: not shown
notes: EU numbering; copies: 2 + 2
B8: IgG1-F822 (antibody)
heavy: B1 heavy with P240D, T252Y, W315Y, R317N
light: not shown
notes: EU numbering; copies: 2 + 2
B9: IgG1-F828 (antibody)
heavy: B1 heavy with P240D, T252V, I255V, R317N
light: not shown
notes: EU numbering; copies: 2 + 2
B10: IgG1-F831 (antibody)
heavy: B1 heavy with P240D, T252V, R257A, R317N
light: not shown
notes: EU numbering; copies: 2 + 2
B11: IgG1-F844 (antibody)
heavy: B1 heavy with P240D, T252V, R257S, R317N
light: not shown
notes: EU numbering; copies: 2 + 2
B12: IgG1-F801 (antibody)
heavy: B1 heavy with R317T
light: not shown
notes: EU numbering; copies: 2 + 2
B13: IgG1-F815 (antibody)
heavy: B1 heavy with R317N, T439R
light: not shown
notes: EU numbering; copies: 2 + 2
B14: IgG1-F843 (antibody)
heavy: B1 heavy with P240D, T252V, R257Q, R317N
light: not shown
notes: EU numbering; copies: 2 + 2
B15: IgG1-F848 (antibody)
heavy: B1 heavy with P240D, T252V, R257Y, R317N
light: not shown
notes: EU numbering; copies: 2 + 2
B16: IgG1-F817 (antibody)
heavy: B1 heavy with P240D, T252V, T309Q, Q313A, R317N
light: not shown
notes: EU numbering; copies: 2 + 2
B17: IgG1-F803 (antibody)
heavy: B1 heavy with R317W
light: not shown
notes: EU numbering; copies: 2 + 2
B18: IgG1-F819 (antibody)
heavy: B1 heavy with P240D, N288E, R317N
light: not shown
notes: EU numbering; copies: 2 + 2
B19: IgG1-F834 (antibody)
heavy: B1 heavy with P240D, T252V, R257F, R317N
light: not shown
notes: EU numbering; copies: 2 + 2
B20: IgG1-F847 (antibody)
heavy: B1 heavy with P240D, T252V, R257W, R317N
light: not shown
notes: EU numbering; copies: 2 + 2
B21: IgG1-F837 (antibody)
heavy: B1 heavy with P240D, T252V, R257I, R317N
light: not shown
notes: EU numbering; copies: 2 + 2
B22: IgG1-F832 (antibody)
heavy: B1 heavy with P240D, T252V, R257D, R317N
light: not shown
notes: EU numbering; copies: 2 + 2
B23: IgG1-F833 (antibody)
heavy: B1 heavy with P240D, T252V, R257E, R317N
light: not shown
notes: EU numbering; copies: 2 + 2
B24: IgG1-F838 (antibody)
heavy: B1 heavy with P240D, T252V, R257K, R317N
light: not shown
notes: EU numbering; copies: 2 + 2
B25: IgG1-F813 (antibody)
heavy: B1 heavy with R317N, S426E
light: not shown
notes: EU numbering; copies: 2 + 2
B26: IgG1-F836 (antibody)
heavy: B1 heavy with P240D, T252V, R257H, R317N
light: not shown
notes: EU numbering; copies: 2 + 2
B27: IgG1-F816 (antibody)
heavy: B1 heavy with P240D, T252V, T309P, R317N
light: not shown
notes: EU numbering; copies: 2 + 2
B28: IgG1-F812 (antibody)
heavy: B1 heavy with R317N, E384V
light: not shown
notes: EU numbering; copies: 2 + 2
B29: IgG1-F808 (antibody)
heavy: B1 heavy with R317N, N391A, N392A
light: not shown
notes: EU numbering; copies: 2 + 2
B30: IgG1-F839 (antibody)
heavy: B1 heavy with P240D, T252V, R257L, R317N
light: not shown
notes: EU numbering; copies: 2 + 2
B31: IgG1-F821 (antibody)
heavy: B1 heavy with L237R, S241K, R317N
light: not shown
notes: copies: 2 + 2
B32: IgG1-F806 (antibody)
heavy: B1 heavy with R317N, N386A
light: not shown
notes: EU numbering; copies: 2 + 2
B33: IgG1-F804 (antibody)
heavy: B1 heavy with R317Y
light: not shown
notes: EU numbering; copies: 2 + 2
B34: IgG1-F805 (antibody)
heavy: B1 heavy with R317N, N327A
light: not shown
notes: EU numbering; copies: 2 + 2
B35: IgG1-F810 (antibody)
heavy: B1 heavy with R317N, A380V
light: not shown
notes: EU numbering; copies: 2 + 2
B36: IgG1-F840 (antibody)
heavy: B1 heavy with P240D, T252V, R257M, R317N
light: not shown
notes: EU numbering; copies: 2 + 2
B37: IgG1-F849 (antibody)
heavy: B1 heavy with D282A, R317N
light: not shown
notes: EU numbering; copies: 2 + 2
B38: IgG1-F809 (antibody)
heavy: B1 heavy with S256T, T258S, R317N
light: not shown
notes: EU numbering; copies: 2 + 2
B39: IgG1-F820 (antibody)
heavy: B1 heavy with L237K, S241K, R317N
light: not shown
notes: EU numbering; copies: 2 + 2

For orientation: Kd means the equilibrium constant for the complex coming apart.

Positions count from the first letter of the chain named.

T1 sequence (chain, as listed by the source limits assumed, chain 1 of 2): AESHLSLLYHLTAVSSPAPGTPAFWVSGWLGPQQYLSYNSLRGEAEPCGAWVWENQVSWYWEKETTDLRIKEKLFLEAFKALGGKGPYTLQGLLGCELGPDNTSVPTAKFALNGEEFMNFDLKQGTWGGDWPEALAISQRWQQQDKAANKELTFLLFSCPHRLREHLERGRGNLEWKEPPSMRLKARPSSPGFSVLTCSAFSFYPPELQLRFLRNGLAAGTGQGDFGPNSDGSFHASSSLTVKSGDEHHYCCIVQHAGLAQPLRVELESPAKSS
T1 sequence (P61769 21-119 limits assumed, chain 2 of 2): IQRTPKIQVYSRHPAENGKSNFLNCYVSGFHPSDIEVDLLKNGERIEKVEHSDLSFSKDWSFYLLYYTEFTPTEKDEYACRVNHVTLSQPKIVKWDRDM

This assay addresses T1, soluble human FcRn complexed with β2-microglobulin (human, UniProt P61769 21-119, limits assumed).
T1 construct: also called hFcRn
Kind of assay: Biacore SPR, pH 7.0.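 Note: test antibodies captured on a Protein L chip with human FcRn flowed over as analyte, KD obtained as the ratio of dissociation to association rate constants.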
Method: A kinetic analysis of binding between human FcRn and the aforementioned antibodies was carried out using the BIACORE™ T100 or T200 surface plasmon resonance system (GE Healthcare). The antibodies being tested were captured on the CM4 Sensor Chip (GE Healthcare) on which a suitable amount of Protein L (ACTIGEN® protein (Alltech)) was suitably immobilized by amine coupling. Next, diluted human FcRn and a running buffer used as a blank were injected to allow the human FcRn to interact with the antibody captured on the sensor chip. A buffer consisting of 50 mmol/L sodium phosphate, 150 mmol/L NaCl and 0.05% (w/v) polysorbate 20 (Tween 20®) (pH 7.0 or pH 7.4) was used for the running buffer, and each buffer was also used to dilute the human FcRn. 10 mmol/L glycine-HCl (pH 1.5) was used to regenerate the sensor chip. All measurements of binding were carried out at 25° C. The KD(M) of each antibody to human FcRn was calculated based on kinetics parameters, i.e., the association rate constant ka (1/Ms) and the dissociation rate constant kd (1/s) calculated from a sensorgram obtained by the measurement. The BIACORE™ T100 or T200 Evaluation Software (GE Healthcare) was used to calculate each parameter.
In turn, B1 yielded a Kd of 410 nM. Under B2 stands 120 nM; under B3, 320 nM.

The molecule B4 came in with a Kd of 1100 nM.

For the molecule B5, the Kd came to 1100 nM. As for B6, the Kd is 380 nM. B7 returned a Kd of 490 nM. The molecule B8 had a Kd of 1100 nM.

Turning to B9, the Kd was 2500 nM.

Regarding B10, the Kd was determined as 1600 nM. B11: the Kd stood at 1300 nM. With B12, the Kd came out at 440 nM. Molecule B13 returned a Kd of 550 nM. B14 displayed a Kd of 660 nM. In the case of B15, the Kd was 830 nM. In turn, B16 yielded a Kd of 98 nM. The molecule B17 registered a dissociation constant (Kd) of 360 nM.

For B18, the Kd was 140 nM. Under B19 stands 810 nM.

Consider B20, for which the Kd is 340 nM. The molecule B21 returned a Kd of 560 nM. B22 returned a Kd of 2600 nM. The result for B23 reads 800 nM; that for B24, 430 nM; that for B25, 280 nM. Turning to B26, the dissociation constant (Kd) was determined as 500 nM. Take B27: the Kd came out at 360 nM.

In the case of B28, the affinity, expressed as Kd, was 270 nM. Molecule B29 yielded an equilibrium dissociation constant (Kd) of 320 nM. As for B30, the Kd was found to be 340 nM. Consider B31, for which the Kd was determined as 310 nM.

Regarding B32, binding was characterised by a dissociation constant (Kd) of 310 nM. Under B33 stands 400 nM; under B34, 300 nM. Take B35: the Kd was 220 nM.

Consider B36, for which the Kd came out at 420 nM. Under B37 stands 330 nM. As to B38, binding was characterised by a dissociation constant (Kd) of 220 nM.

B39 showed a Kd of 340 nM.
